Measurements reported in US20210338733A1.

Target: CD19 on CD19 positive target cell lines (UniProt P15391)
Experiment: cell-based or functional assay

CD19 on CD19 positive target cell lines, sequence (P15391 20-556 limits assumed): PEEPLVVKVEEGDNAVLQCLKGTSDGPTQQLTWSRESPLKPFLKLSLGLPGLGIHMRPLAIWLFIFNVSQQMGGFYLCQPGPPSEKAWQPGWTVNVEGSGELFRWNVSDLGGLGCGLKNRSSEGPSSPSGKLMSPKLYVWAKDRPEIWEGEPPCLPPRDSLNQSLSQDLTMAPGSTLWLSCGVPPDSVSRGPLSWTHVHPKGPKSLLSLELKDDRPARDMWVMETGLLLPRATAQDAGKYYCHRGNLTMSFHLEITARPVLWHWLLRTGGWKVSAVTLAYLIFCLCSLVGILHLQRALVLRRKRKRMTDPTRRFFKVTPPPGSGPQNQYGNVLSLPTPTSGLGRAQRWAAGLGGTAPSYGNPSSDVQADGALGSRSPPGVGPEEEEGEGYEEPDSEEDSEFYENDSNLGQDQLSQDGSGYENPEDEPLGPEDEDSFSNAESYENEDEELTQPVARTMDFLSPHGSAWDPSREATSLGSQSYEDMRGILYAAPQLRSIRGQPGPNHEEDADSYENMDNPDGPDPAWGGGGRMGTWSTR

CD19 CAR as expressed on CART-19 cells (anti-CD19 FMC63 scFv, human CD8α hinge and transmembrane, human 4-1BB and CD3ζ) (receptor)
CD40L expression by CD4+ CAR T cells (flow cytometry, 24 hours of coincubation) (fold of the upregulation by CART-TnMUC1): 2
